Legend:
collagen type I = experiment: cell-based or functional assay
[1] = biological target: human TANGO 268 (glycoprotein VI, GPVI), full length (human) (UniProt Q9HCN6); experiment: flow cytometry on washed human platelets
[2] = biological target: baboon GPVI on baboon platelets (baboon); experiment: flow cytometry on washed baboon platelets
[3] = biological target: soluble human GPVI-Fc (the extracellular domain of GPVI fused to Fc) (human) (UniProt Q9HCN6); experiment: SPR (BIAcore), GPVI-Fc coupled to the chip, bivalent model
[4] = biological target: soluble human GPVI-Fc (the extracellular domain of GPVI fused to Fc) (human) (UniProt Q9HCN6); experiment: ELISA, 5 nM GPVI-Fc with 10 µg/ml antibody on collagen-coated wells; collagen is the blocked partner
[5] = biological target: soluble human GPVI-Fc (the extracellular domain of GPVI fused to Fc) (human) (UniProt Q9HCN6); experiment: 125I-convulxin binding to GPVI-Fc captured on mAb 1P10.2, 10 µg/ml antibody; convulxin is the blocked partner

Chain of soluble human GPVI-Fc (the extracellular domain of GPVI fused to Fc) (human) (Q9HCN6 other isoform, or with tags, fused parts or gaps): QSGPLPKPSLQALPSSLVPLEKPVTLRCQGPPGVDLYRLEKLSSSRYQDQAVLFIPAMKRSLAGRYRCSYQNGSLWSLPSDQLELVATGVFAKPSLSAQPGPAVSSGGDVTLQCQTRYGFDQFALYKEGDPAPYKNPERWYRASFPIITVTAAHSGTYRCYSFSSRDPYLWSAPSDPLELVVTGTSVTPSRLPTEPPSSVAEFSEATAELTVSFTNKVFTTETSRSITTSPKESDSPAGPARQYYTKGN
Chain of human TANGO 268 (glycoprotein VI, GPVI), full length (human) (Q9HCN6 other isoform, or with tags, fused parts or gaps): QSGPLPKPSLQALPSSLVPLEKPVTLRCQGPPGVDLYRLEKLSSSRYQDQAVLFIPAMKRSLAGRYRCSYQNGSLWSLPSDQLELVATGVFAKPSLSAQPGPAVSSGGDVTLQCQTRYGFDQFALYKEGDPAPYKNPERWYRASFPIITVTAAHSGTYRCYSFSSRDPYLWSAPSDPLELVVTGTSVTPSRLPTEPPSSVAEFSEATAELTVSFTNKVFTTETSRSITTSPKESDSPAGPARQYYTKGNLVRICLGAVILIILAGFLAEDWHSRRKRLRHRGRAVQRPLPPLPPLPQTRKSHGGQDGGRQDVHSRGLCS

Substance | concentration of rhusGPVI:Fc needed to inhibit collagen-induced activation, against that needed for Cvx (collagen type I) [fold] | Human fluorescence intensity [1] | Human platelets % positive [1] [%] | Baboon fluorescence intensity [2] | Baboon platelets % positive [2] [%] | Kd [3] [nM] | % of Inhibition of collagen binding of hrGPVI [4] [%] | % of Inhibition of convulxin binding of hrGPVI [5] [%]
recombinant human soluble GPVI:Fc fusion protein (rhusGPVI:Fc) (from UniProt Q9HCN6 21-269) | 10 |  |  |  |  |  |  | 
mouse monoclonal antibody produced by hybridoma cell line 9012.2 |  | 14 | 21 | 18 | 33.8 | 18 | 58 | 75

— patent US20080050380A1
